Source: US20210253718A1, “FRIZZLED5 PROTEIN-BINDING AGENTS” (Modmab Therapeutics Corporation, priority 2016, published 2021)

T1: FZD8 cysteine-rich domain (CRD), MYC-tagged and GPI-anchored on CHO cells (human)
T1 sequence (chain, GPI anchor): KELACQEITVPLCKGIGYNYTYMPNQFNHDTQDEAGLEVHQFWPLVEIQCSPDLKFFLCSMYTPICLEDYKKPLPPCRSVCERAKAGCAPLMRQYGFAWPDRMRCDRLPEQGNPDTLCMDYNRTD

B1: Fab-2925 (Fab, V domains shown)
VH: EVQLVESGGGLVQPGGSLRLSCAASGFNLSYSSMHWVRQAPGKGLEWVASIYPSYGSTYYADSVKGRFTISADTSKNTAYLQMNSLRAEDTAVYYCARYGYFGLDYWGQGTLVTVSS
VL: DIQMTQSPSSLSASVGDRVTITCRASQSVSSAVAWYQQKPGKAPKLLIYSASSLYSGVPSRFSGSRSGTDFTLTISSLQPEDFATYYCQQAWVYASLFTFGQGTKVEIK
B2: Fab-2905 (Fab, V domains shown)
VH: EVQLVESGGGLVQPGGSLRLSCAASGFNLSYYYMHWVRQAPGKGLEWVASIYSSYSYTSYADSVKGRFTISADTSKNTAYLQMNSLRAEDTAVYYCARSGYALDYWGQGTLVTVSS
VL: DIQMTQSPSSLSASVGDRVTITCRASQSVSSAVAWYQQKPGKAPKLLIYSASSLYSGVPSRFSGSRSGTDFTLTISSLQPEDFATYYCQQSSWYYGYPFTFGQGTKVEIK

Biological target: T1, FZD8 cysteine-rich domain (CRD), MYC-tagged and GPI-anchored on CHO cells (human)
Assay: flow cytometry, CHO-CRD cells

Row | Binder | median fluorescence
1 | B1 | 7.7
2 | B2 | 8.17
